Assay [1] concerns the target T1, Cam1 (fission yeast calmodulin), amino-terminally acetylated (S. pombe, UniProt P05933 1-150, amino-terminal (Nt) acetylation). Nature of the assay: FRET; second site (Kd2).
The target in assay [2] is T1, Cam1 (fission yeast calmodulin), …. Kind of assay: FRET; first site (Kd1; <0.1 uM).
The target is the same in assay [3]. Nature of the assay: FRET.

T1 sequence (P05933 whole entry): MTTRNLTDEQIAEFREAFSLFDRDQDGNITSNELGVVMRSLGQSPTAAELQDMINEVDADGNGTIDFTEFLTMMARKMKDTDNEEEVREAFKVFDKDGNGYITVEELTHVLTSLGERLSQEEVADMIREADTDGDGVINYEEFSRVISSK

As a reminder, the Kd is a measure of binding affinity in units of concentration. Low readings indicate tighter binding, high ones weaker binding. Take CyPet-DTMATRIQRAWRSYVRRRDEAAACIQKLWNRNKVNMELERVRNEGTK-YPet (domain or fragment, not fully specified) [CyPet-Myo1^IQ12-S742D-YPet FRET reporter protein]: the Kd was determined as 540 nM in assay [1] and 90 nM in assay [2].

DTMATRIQRAWRSYVRRRSEAAACIQKLWNRNKVNMELERVRNEGTK (domain or fragment) [CyPet-Myo1^IQ12-YPet FRET reporter protein]: binding in assay [2] was characterised by a dissociation constant (Kd) of 40 nM. This lies in the double-digit nanomolar range.

In assay [3], DTMATRIQRAWRSYVRRRSEA (domain or fragment) [CyPet-Myo1^IQ1-YPet FRET reporter protein] showed a Kd of 60 nM.
